The target of the assay is recombinant thioredoxin (rTRX) [thioredoxin: P0AA25]. Kind of assay: SPR; BIAcore T200; anti-His-tag antibody amine-coupled to a CM5 chip captures the His-tagged recombinant protein (0.1 mg/mL, about 200 RU); ligands (0.1 mg/mL) injected at 10 μL/min for 180 s; HBS-EP pH 7.5 (10 mM HEPES, 150 mM NaCl, 3 mM EDTA, 0.005% P20); relative reaction value, RUs >10 considered positive. On the technique in general: SPR reads the build-up and loss of mass on a sensor chip optically.
Sequence of recombinant thioredoxin (rTRX) [thioredoxin: P0AA25] (P0AA25 whole entry): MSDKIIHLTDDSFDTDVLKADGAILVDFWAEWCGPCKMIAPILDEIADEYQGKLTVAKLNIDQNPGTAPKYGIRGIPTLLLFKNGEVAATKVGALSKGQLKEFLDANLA

Turning to laminin protein, the response units (relative reaction value) was less than 10 RUs.
